Target: alpha-1 antichymotrypsin (ACT, Sigma Chemical Co.) (UniProt P01011)
Sequence (P01011 24-423): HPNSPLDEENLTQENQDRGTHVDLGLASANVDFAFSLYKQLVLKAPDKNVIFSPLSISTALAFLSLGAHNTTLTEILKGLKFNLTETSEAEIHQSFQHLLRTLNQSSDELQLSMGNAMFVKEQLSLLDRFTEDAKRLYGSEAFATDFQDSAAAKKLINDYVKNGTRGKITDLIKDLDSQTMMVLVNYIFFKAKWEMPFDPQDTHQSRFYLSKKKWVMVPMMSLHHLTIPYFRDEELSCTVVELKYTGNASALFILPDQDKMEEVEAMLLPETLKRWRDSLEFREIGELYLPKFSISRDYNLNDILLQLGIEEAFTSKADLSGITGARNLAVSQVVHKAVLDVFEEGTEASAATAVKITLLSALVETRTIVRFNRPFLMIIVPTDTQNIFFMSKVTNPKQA

## Human Prostate-Specific Antigen (purified human PSA, Vitro Diagnostics)
  proteolytic (serine protease) activity of PSA on synthetic substrate S-2586, absorbance at 405 nm: preincubation of PSA with ACT blocked both serine protease activity of purified PSA (FIG. 11)

From US20030012792
